Data reported in publication doi:10.1101/2023.02.22.529570 (bioRxiv, 2023).

Biological target: T1, His-NEON-EBP50 PDZ1PDZ2 (human, UniProt O14745-1 1-298)
T1 sequence: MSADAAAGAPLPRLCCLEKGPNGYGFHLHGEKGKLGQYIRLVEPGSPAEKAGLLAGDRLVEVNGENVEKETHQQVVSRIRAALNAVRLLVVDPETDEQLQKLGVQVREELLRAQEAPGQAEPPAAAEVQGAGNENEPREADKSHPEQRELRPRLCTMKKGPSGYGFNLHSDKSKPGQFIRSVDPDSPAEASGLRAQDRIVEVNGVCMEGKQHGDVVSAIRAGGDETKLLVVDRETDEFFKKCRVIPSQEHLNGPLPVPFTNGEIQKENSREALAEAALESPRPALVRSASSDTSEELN
Assay: pull-down

B1: GST-CDHR5 CD (domain or fragment)
chain: RLKCCCGKAPEPQPQGFDNQAFLPDHKANWAPVPSPTHDPKPAEAPMPAEPAPPGPASPGGAPEPPAAARAGGSPTAVRSILTKERRPEGGYKAVWFGEDIGTEADVVVLNAPTLDVDGASDSGSGDEGEGAGRGGGPYDAPGGDDSYI
- binding result: binds
